Biological target: Tau (Tau441, 2N4R) (human, UniProt P10636-8 1-441)
Assay: SPR; 10 mM KCl; SPR (OpenSPR): 50 mM Tris-HCl pH 7.4, 10 mM KCl; biotin-RNA on streptavidin chip, 20 ul/min, 1:1 fit; temperature not stated
Conditions: protein: recombinant, tags: none stated (pET23a-human Tau441)

Sequence of Tau (Tau441, 2N4R) (P10636 other isoform, or with tags, fused parts or gaps): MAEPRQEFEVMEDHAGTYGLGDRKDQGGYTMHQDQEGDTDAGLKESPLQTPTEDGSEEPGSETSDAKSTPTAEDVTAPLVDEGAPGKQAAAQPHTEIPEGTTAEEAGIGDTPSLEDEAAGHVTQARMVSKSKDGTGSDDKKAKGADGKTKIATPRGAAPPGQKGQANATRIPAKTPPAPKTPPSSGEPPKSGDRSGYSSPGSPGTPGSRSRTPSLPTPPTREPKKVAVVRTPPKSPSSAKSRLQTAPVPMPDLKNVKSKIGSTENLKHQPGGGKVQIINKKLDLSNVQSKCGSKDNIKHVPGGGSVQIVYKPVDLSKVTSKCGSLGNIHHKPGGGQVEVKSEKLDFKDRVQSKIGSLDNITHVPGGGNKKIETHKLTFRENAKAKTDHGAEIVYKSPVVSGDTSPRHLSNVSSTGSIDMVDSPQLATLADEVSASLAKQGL

Binder	Kd	Kd (RNA G-quadruplex)
AAAAAAAAAAAAAAAAAAAAAAAA (ssRNA) [r(AAA)8]	71.7 ± 27 nM	–
UUAGGGUUAGGGUUAGGGUUAGGG (structured_RNA) [G4tr r(UUAGGG)4]	–	32.1 ± 8.38 nM
CAGCAGCAGCAGCAGCAGCAGCAG (ssRNA) [r(CAG)8]	57.3 ± 13.9 nM	–
UUACCGUUACCGUUACCGUUACCG (ssRNA) [G4mt r(UUACCG)4]	52.5 ± 14.3 nM	–
